Data reported in the supplement of paper PMC11246515.
± gives the standard deviation of the averaged measurements.

Experiment: total protein half-life in vivo (active degradation + dilution); higher = more stable protein
[1] = E. coli NCM3722 delta-clpP delta-lon delta-hslV, growth: N-lim chemostat, doubling time 6 h
[2] = E. coli NCM3722 delta-clpP, growth: N-lim chemostat, doubling time 6 h
[3] = E. coli NCM3722 delta-hslV, growth: N-lim chemostat, doubling time 6 h
[4] = E. coli NCM3722 delta-lon, growth: N-lim chemostat, doubling time 6 h
[5] = E. coli NCM3722 delta-smpB, growth: N-lim chemostat, doubling time 6 h
[6] = wild type E. coli NCM3722, growth: C-lim chemostat, doubling time 3 h
[7] = wild type E. coli NCM3722, growth: C-lim chemostat, doubling time 6 h
[8] = wild type E. coli NCM3722, growth: C-lim chemostat, doubling time 12 h
[9] = wild type E. coli NCM3722, growth: N-lim chemostat, doubling time 6 h
[10] = wild type E. coli NCM3722, growth: N-lim chemostat, doubling time 12 h
[11] = wild type E. coli NCM3722, growth: P-lim chemostat, doubling time 6 h
[12] = wild type E. coli NCM3722, growth: P-lim chemostat, doubling time 12 h

Sequence | total protein half-life in vivo [1] [h] | total protein half-life in vivo [2] [h] | total protein half-life in vivo [3] [h] | total protein half-life in vivo [4] [h] | total protein half-life in vivo [5] [h] | total protein half-life in vivo [6] [h] | total protein half-life in vivo [7] [h] | total protein half-life in vivo [8] [h] | total protein half-life in vivo [9] [h] | total protein half-life in vivo [10] [h] | total protein half-life in vivo [11] [h] | total protein half-life in vivo [12] [h]
MKKLVATAPRVAALVEYEDRAILANEVKIRVRFGAPKHGTEVVDFRAASPFIDEDFNGEWQMFTPRPADAPRGIEFGKFQLGNMVVGDIIECGSDVTDYAVGDSVCGYGPLSETVIINAVNNYKLRKMPQGSSWKNAVCYDPAQFAMSGVRDANVRVGDFVVVVGLGAIGQIAIQLAKRAGASVVIGVDPIAHRCDIARRHGADFCLNPIGTDVGKEIKTLTGKQGADVIIETSGYADALQSALRGLAYGGTISYVAFAKPFAEGFNLGREAHFNNAKIVFSRACSEPNPDYPRWSRKRIEETCWELLMNGYLNCEDLIDPVVTFANSPESYMQYVDQHPEQSIKMGVTF | 6.29 ± 0.3 |  |  |  |  |  |  |  |  |  |  | 
MKKLVLAALLASFTFGASAAEKINFGVSATYPPFESIGANNEIVGFDIDLAKALCKQMQAECTFTNHAFDSLIPSLKFRKYDAVISGMDITPERSKQVSFTTPYYENSAVVIAKKDTYKTFADLKGKRIGMENGTTHQKYIQDQHPEVKTVSYDSYQNAFIDLKNGRIDGVFGDTAVVNEWLKTNPQLGVATEKVTDPQYFGTGLGIAVRPDNKALLEKLNNALAAIKADGTYQKISDQWFPQ | 4.29 ± 0.69 | 5.1 ± 0.92 | 5.91 ± 0.093 | 6.25 ± 0.23 | 5.73 ± 0.62 | 2.99 ± 0.12 | 6.13 ± 0.83 | 9.32 ± 1.2 | 5.47 ± 0.24 | 11.9 ± 0.32 | 5.3886 ± 0.0029 | 11 ± 1.2
MKKNSYLLSCLAIAVSSACHAEVLTYPDPLGSSQSDFGGTGLLQMPNARIAPEGEFSVNYRDNDQYRFYSTSVALFPWLEGTIRYTDVRTRKYSQWEDFSGDQSYKDKSFDFKLRLWEEGYWLPQVAFGKRDIAGTGLFDGEYLVASKQAGPFDFTLGMAWGYAGNAGNITNPFCRVSDKYCHRAESHDAGDISFSDIFRGPASIFGGIEYQTPWNPLRLKLEYDGNNYQNDFAGKLPQASHFNVGAVYRAASWADLNLSYERGNTLMFGFTLRTNFNDLRPALRDTPKPAYQPAPESEGLQYTTVANQLTALKYNAGFDAPEIQLRDKTLYMSGQQYKYRDSREAVDRANRILVNNLPQGVEKISVTQKREHMAMVTTETDVASLRKQLAGTAPGQSEPLQQQRVEAEDLSAFGRGYRIREDRFSYSFNPTLSQSLGGPEDFYMFQLGLMSSARYWFTDHLLLDGGIFTNIYNNYDKFKSSLLPADSTLPRVRTHIRDYVRNDVYLNNLQANYFADLGNGFYGQVYGGYLETMYAGVGSELLYRPLDACWALGVDVNYVKQRDWDNMMRFTDYSTPTGFVTAYWNPPTLNGVLMKLSVGQYLAKDKGATIDVAKRFDSGVAVGVWAAISNVSKDDYGEGGFSKGFYISIPFDLMTIGPNRNRAVVSWTPLTRDGGQMLSRKYQLYPMTAEREVPVGQ | 4.97 ± 0.12 |  | 6.08 ± 0.65 |  |  | 3.09 |  | 10.3 | 6.71 |  |  | > 16
MKKPNHSGSGQIRIIGGQWRGRKLPVPDSPGLRPTTDRVRETLFNWLAPVIVDAQCLDCFAGSGALGLEALSRYAAGATLIEMDRAVSQQLIKNLATLKAGNARVVNSNAMSFLAQKGTPHNIVFVDPPFRRGLLEETINLLEDNGWLADEALIYVESEVENGLPTVPANWSLHREKVAGQVAYRLYQREAQGESDAD [P0ADX9] | 5.34 ± 0.45 | 4.8 ± 0.15 | 4.49 ± 0.13 | 5.32 ± 0.09 | 5.18 ± 0.6 | 3.08 ± 0.15 | 5.57 ± 0.19 | 10.1 ± 1.5 | 4.49 ± 0.68 | 12.5 | 5.1 ± 0.26 | 11.1 ± 0.63
MKKRHLLSLLALGISTACYGETYPAPIGPSQSDFGGVGLLQTPTARMAREGELSLNYRDNDQYRYYSASVQLFPWLETTLRYTDVRTRQYSSVEAFSGDQTYKDKAFDLKLRLWEESYWLPQVAVGARDIGGTGLFDAEYLVASKAWGPFDFTLGLGWGYLGTSGNVKNPLCSASDKYCYRDNSYKQAGSIDGSQMFHGPASLFGGVEYQTPWQPLRLKLEYEGNNYQQDFAGKLEQKSKFNVGAIYRVTDWADVNLSYERGNTFMFGVTLRTNFNDLRPSYNDNARPQYQPQPQDAILQHSVVANQLTLLKYNAGLADPQIQAKGDTLYVTGEQVKYRDSREGIIRANRIVMNDLPDGIKTIRITENRLNMPQVTTETDVASLKNHLAGEPLGHETTLAQKRVEPVVPQSTEQGWYIDKSRFDFHIDPVLNQSVGGPENFYMYQLGVMGTADLWLTDHLLTTGSLFANLANNYDKFNYTNPPQDSHLPRVRTHVREYVQNDVYVNNLQANYFQHLGNGFYGQVYGGYLETMFGGAGAEVLYRPLDSNWAFGLDANYVKQRDWRSAKDMMKFTDYSVKTGHLTAYWTPSFAQDVLVKASVGQYLAGDKGGTLEIAKRFDSGVVVGGYATITNVSKEEYGEGDFTKGVYVSVPLDLFSSGPTRSRAAIGWTPLTRDGGQQLGRKFQLYDMTSDRSVNFR | 5.44 |  |  | 6.75 ± 0.42 | 5.88 ± 0.37 |  |  | 12.6 |  | 11.6 |  | 
MKKSILALSLLVGLSTAASSYAALPETVRIGTDTTYAPFSSKDAKGDFVGFDIDLGNEMCKRMQVKCTWVASDFDALIPSLKAKKIDAIISSLSITDKRQQEIAFSDKLYAADSRLIAAKGSPIQPTLDSLKGKHVGVLQGSTQEAYANETWRSKGVDVVAYANQDLVYSDLAAGRLDAALQDEVAASEGFLKQPAGKDFAFAGSSVKDKKYFGDGTGVGLRKDDAELTAAFNKALGELRQDGTYDKMAKKYFDFNVYGD | 6.69 ± 0.15 |  | 6.37 ± 0.68 | 6.79 ± 0.077 | 5.31 ± 0.11 | 3.22 ± 0.3 | 6.33 ± 0.92 | 11.58 ± 0.11 | 5.27 ± 0.47 | 8.71 ± 0.59 | 5.98 ± 0.25 | 11.4 ± 1.6
MKKSITTLDLNLLLCLQLLMQERSVTKAAKRINVTPSAVSKSLAKLRAWFDDPLFVNSPLGLSPTPLMVSMEQNLAEWMQMSNLLLDKPHHQTPRGLKFELAAESPLMMIMLNALSKQIYQRYPQATIKLRNWDYDSLDAITRGEVDIGFSGRESHPRSRELLSSLPLAIDYEVLFSDVPCVWLRKDHPALHQTWNLDTFLRYPHISICWEQSDTWALDNVLQELGRERTIAMSLPEFEQSLFMAAQPDNLLLATAPRYCQYYNQLHQLPLVALPLPFDESQQKKLEVPFTLLWHKRNSHNPKIVWLRETIKNLYASMA | 5.87 ± 0.7 | 5.16 ± 1 | 5.91 ± 0.94 | 6.37 ± 0.5 | 4.519 ± 0.029 |  |  |  | 4.74 | 12.2 |  | 11.2 ± 0.6
MKKSLLGLTFASLMFSAGSAVAADYKIDKEGQHAFVNFRIQHLGYSWLYGTFKDFDGTFTFDEKNPAADKVNVTINTTSVDTNHAERDKHLRSADFLNTAKYPQATFTSTSVKKDGDELDITGDLTLNGVTKPVTLEAKLIGQGDDPWGGKRAGFEAEGKIKLKDFNIKTDLGPASQEVDLIISVEGVQQK [P0A8X2] | 5.61 ± 0.24 | 6.32 ± 0.21 | 6.38 ± 0.11 | 6.59 ± 0.48 | 6.61 ± 1.1 | 3.22 ± 0.24 |  | 10.6 ± 4 | 6.19 ± 0.62 | 10.9 ± 2.2 | 6.05 ± 0.28 | 14 ± 1.4
MKKTQRKEIENVTNITGVRQIELWRRDDLQHPRLDEVAEEVPVALVYNGISHVVMMASPKDLEYFALGFSLSEGIIESPRDIFGMDVVPSCNGLEVQIELSSRRFMGLKERRRALAGRTGCGVCGVEQLNDIGKPVQPLPFTQTFDLNKLDDALRHLNDFQPVGQLTGCTHAAAWMLPSGELVGGHEDVGRHVALDKLLGRRSQEGESWQQGAVLVSSRASYEMVQKSAMCGVEILFAVSAATTLAVEVAERCNLTLVGFCKPGRATVYTHPQRLSN | 5.53 ± 0.71 | > 8 | 3.83 ± 0.57 | 4.1 ± 0.3 | 3.793 ± 0.019 | 2.89 ± 0.25 | 4.79 ± 0.16 | 9.01 ± 0.31 | 3.88 ± 0.38 | 6.61 ± 0.14 | 4.99 ± 0.11 | 10.5 ± 0.64
MKKTRTANLHHLYHEPLPENLKLTPKVEVDNVHQRQTTDVYEHALTITAWQQIYDQLHPGKFHGEFTEILLDDIQVFREYTGLALRQSCLVWPNSFWFGIPATRGEQGFIGSQCLGSAEIATRPGGTEFELSTPDDYTILGVVLSEDVITRQANFLHNPDRVLHMLRNQSALEVKEQHKAALWGFVQQALATFCENPENLHQPAVRKVLGDNLLMAMGAMLEEAQPMVTAESISHQSYRRLLSRAREYVLENMSEPVTVLDLCNQLHVSRRTLQNAFHAILGIGPNAWLKRIRLNAVRRELISPWSQSMTVKDAAMQWGFWHLGQFATDYQQLFSEKPSLTLHQRMREWG | 5.53 ± 0.77 |  |  |  |  |  | 1.42 |  |  | 2.75 | 1.29 | 
MKKVAAFVALSLLMAGCVSNDKIAVTPEQLQHHRFVLESVNGKPVTSDKNPPEISFGEKMMISGSMCNRFSGEGKLSNGELTAKGLAMTRMMCANPQLNELDNTISEMLKEGAQVDLTANQLTLATAKQTLTYKLADLMN | 6.45 ± 1.1 | 6.13 ± 0.01 | 6.52 ± 1.3 |  | 6.01 ± 0.55 | 2.95 ± 0.68 | 5.47 ± 1.1 | 11 ± 0.29 | 6.111 ± 0.014 | 11.5 ± 1.1 | 6 ± 0.54 | 12.9 ± 0.28
